Test system: Escherichia coli TOP10
Experiment: shrunken log2 fold change of peptide-encoding DNA abundance (4.5 h post-induction vs induction); higher = less antimicrobial activity (less host growth inhibition)
Conditions: time post-induction: 4.5 h; library: site-saturation at positions 5, 18, 19, 20
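Further: peptides expressed intracellularly from a pBAD plasmid library in pooled LB shake-flask culture, induced with 0.3% L-arabinose, DNA abundance read by NGS, three biological replicates, DESeq2 with apeglm shrinkage.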

Sequence	shrunken log2 fold change
RRIRNRPPRLPRPRPRPGTDPRP	-0.0425
RRIRPRPPRLPRPRPRPYGDPRP	-0.156
RRIRHRPPRLPRPRPRPINFPRP	-0.368
RRIRVRPPRLPRPRPRPPYMPRP	-0.592
RRIRKRPPRLPRPRPRPFRCPRP	-0.142
RRIRWRPPRLPRPRPRPCTDPRP	0.0992
RRIRRRPPRLPRPRPRPSWDPRP	-0.102
RRIRWRPPRLPRPRPRPHDSPRP	-0.122
RRIRFRPPRLPRPRPRPRLYPRP	-0.014
RRIRDRPPRLPRPRPRPHRFPRP	0.0062
RRIRIRPPRLPRPRPRPHMLPRP	-0.943
RRIRIRPPRLPRPRPRPTQDPRP	-0.236
RRIRFRPPRLPRPRPRPRVHPRP	-0.0984
RRIRTRPPRLPRPRPRPKCSPRP	-0.0669
RRIRNRPPRLPRPRPRPNSFPRP	-0.00469
RRIRHRPPRLPRPRPRPMKSPRP	-0.00231
RRIRHRPPRLPRPRPRPLHVPRP	0.146
RRIRARPPRLPRPRPRPHSKPRP	-0.154
RRIRSRPPRLPRPRPRPREHPRP	0.152
RRIRKRPPRLPRPRPRPEMLPRP	2
RRIRWRPPRLPRPRPRPKKKPRP	-0.139
RRIRMRPPRLPRPRPRPKNSPRP	0.132
RRIRTRPPRLPRPRPRPCGTPRP	-0.0194
RRIRFRPPRLPRPRPRPQIVPRP	0.0871
RRIRVRPPRLPRPRPRPLSSPRP	0.0511

Sequence	shrunken log2 fold change
RRIRRRPPRLPRPRPRPKYPPRP	-0.0539
RRIRWRPPRLPRPRPRPWALPRP	-0.158
RRIRDRPPRLPRPRPRPMMRPRP	0.763
RRIRCRPPRLPRPRPRPASGPRP	0.148
RRIRLRPPRLPRPRPRPKWVPRP	-0.25
RRIRWRPPRLPRPRPRPWCWPRP	0.304
RRIRNRPPRLPRPRPRPAAAPRP	0.43
RRIRKRPPRLPRPRPRPFQTPRP	0.12
RRIRTRPPRLPRPRPRPFKWPRP	-0.121
RRIRDRPPRLPRPRPRPHRCPRP	-0.00141
RRIRGRPPRLPRPRPRPTVRPRP	0.452
RRIRHRPPRLPRPRPRPQNQPRP	-0.563
RRIRHRPPRLPRPRPRPPAKPRP	0.539
RRIRGRPPRLPRPRPRPQQAPRP	-0.0245
RRIRTRPPRLPRPRPRPNLPPRP	0.0474
RRIRERPPRLPRPRPRPFWGPRP	0.0105
RRIRHRPPRLPRPRPRPVIWPRP	-0.134
RRIRQRPPRLPRPRPRPVWCPRP	0.0608
RRIRQRPPRLPRPRPRPLYVPRP	-0.307
RRIRQRPPRLPRPRPRPAPRPRP	0.966
RRIRIRPPRLPRPRPRPQHCPRP	-0.248
RRIRWRPPRLPRPRPRPKGLPRP	-0.0645
RRIRWRPPRLPRPRPRPLTNPRP	-0.114
RRIRLRPPRLPRPRPRPHWWPRP	0.148
RRIRTRPPRLPRPRPRPRFAPRP	0.37

Sequence	shrunken log2 fold change
RRIRIRPPRLPRPRPRPEKWPRP	-0.0117
RRIRRRPPRLPRPRPRPGPKPRP	0.255
RRIRWRPPRLPRPRPRPYRFPRP	-0.0166
RRIRERPPRLPRPRPRPCASPRP	-0.172
RRIRERPPRLPRPRPRPYHQPRP	-0.416
RRIRNRPPRLPRPRPRPATIPRP	-0.44
RRIRWRPPRLPRPRPRPRYFPRP	-0.127
RRIRQRPPRLPRPRPRPLENPRP	-0.0226
RRIRARPPRLPRPRPRPESYPRP	1.13
RRIRVRPPRLPRPRPRPIWHPRP	-0.164
RRIRHRPPRLPRPRPRPVSEPRP	-0.254
RRIRVRPPRLPRPRPRPFPSPRP	-0.127
RRIRMRPPRLPRPRPRPNPMPRP	0.568
RRIRHRPPRLPRPRPRPIQAPRP	-0.0107
RRIRSRPPRLPRPRPRPGPGPRP	0.599
RRIRVRPPRLPRPRPRPWYSPRP	-0.183
RRIRDRPPRLPRPRPRPNDQPRP	-0.154
RRIRRRPPRLPRPRPRPMVFPRP	0.182
RRIRMRPPRLPRPRPRPFCWPRP	0.421
RRIRPRPPRLPRPRPRPMNTPRP	-0.0416
RRIRTRPPRLPRPRPRPKAKPRP	-0.0262
RRIRMRPPRLPRPRPRPVWDPRP	-0.136
RRIRFRPPRLPRPRPRPQFPPRP	-0.16
RRIRTRPPRLPRPRPRPQLKPRP	0.0828
RRIRSRPPRLPRPRPRPAHFPRP	-0.418

Sequence	shrunken log2 fold change
RRIRFRPPRLPRPRPRPLEQPRP	0.0789
RRIRWRPPRLPRPRPRPDDMPRP	-0.147
RRIRRRPPRLPRPRPRPHEAPRP	0.0262
RRIRIRPPRLPRPRPRPRQNPRP	-0.459
RRIRNRPPRLPRPRPRPCINPRP	-0.548
RRIRIRPPRLPRPRPRPVMWPRP	-0.0605
RRIRWRPPRLPRPRPRPMCMPRP	0.0952
RRIRHRPPRLPRPRPRPPYKPRP	-0.31
RRIRGRPPRLPRPRPRPKEYPRP	-0.102
RRIRVRPPRLPRPRPRPEQCPRP	0.171
RRIRTRPPRLPRPRPRPSFAPRP	-0.126
RRIRYRPPRLPRPRPRPYSCPRP	-0.344
RRIRLRPPRLPRPRPRPHMKPRP	-0.024
RRIRGRPPRLPRPRPRPIHPPRP	0.0319
RRIRVRPPRLPRPRPRPDLNPRP	-0.233
RRIRCRPPRLPRPRPRPEHDPRP	-0.131
RRIRSRPPRLPRPRPRPMTSPRP	-0.0553
RRIRQRPPRLPRPRPRPMKQPRP	-0.0134
RRIRFRPPRLPRPRPRPVIEPRP	-0.161
RRIRYRPPRLPRPRPRPEWMPRP	-0.758
RRIRLRPPRLPRPRPRPLLVPRP	-0.12
RRIRGRPPRLPRPRPRPSTNPRP	0.271
RRIRNRPPRLPRPRPRPFIFPRP	-0.373
RRIRHRPPRLPRPRPRPKWHPRP	-0.108
RRIRSRPPRLPRPRPRPPSYPRP	-0.555

Sequence	shrunken log2 fold change
RRIRWRPPRLPRPRPRPYMRPRP	0.0516
RRIRTRPPRLPRPRPRPDLCPRP	0.144
RRIRERPPRLPRPRPRPMLMPRP	-0.142
RRIRPRPPRLPRPRPRPGYYPRP	-0.45
RRIRGRPPRLPRPRPRPMDMPRP	-0.02
RRIRYRPPRLPRPRPRPYIMPRP	-0.223
RRIRLRPPRLPRPRPRPKEPPRP	-0.0333
RRIRDRPPRLPRPRPRPNWVPRP	0.0019
RRIRYRPPRLPRPRPRPHQPPRP	-0.748
RRIRNRPPRLPRPRPRPCGNPRP	-0.0905
RRIRSRPPRLPRPRPRPNTNPRP	-0.0164
RRIRGRPPRLPRPRPRPVSGPRP	0.731
RRIRLRPPRLPRPRPRPVIYPRP	-0.224
RRIRVRPPRLPRPRPRPLNSPRP	-0.298
RRIRTRPPRLPRPRPRPELWPRP	-0.142
RRIRVRPPRLPRPRPRPNHHPRP	-0.373
RRIRNRPPRLPRPRPRPPNSPRP	-0.072
RRIRWRPPRLPRPRPRPRVFPRP	0.186
RRIRFRPPRLPRPRPRPTMGPRP	0.0497
RRIRMRPPRLPRPRPRPYLCPRP	-0.165
RRIRGRPPRLPRPRPRPMSEPRP	0.286
RRIRWRPPRLPRPRPRPDSMPRP	-0.0126
RRIRCRPPRLPRPRPRPCIVPRP	-0.718
RRIRNRPPRLPRPRPRPGCEPRP	0.212
RRIRSRPPRLPRPRPRPITFPRP	-0.716

Sequence	shrunken log2 fold change
RRIRLRPPRLPRPRPRPCGLPRP	0.142
RRIRPRPPRLPRPRPRPIVDPRP	0.0804
RRIRCRPPRLPRPRPRPAVHPRP	0.0826
RRIRRRPPRLPRPRPRPHPAPRP	0.583
RRIRIRPPRLPRPRPRPPPLPRP	0.302
RRIRRRPPRLPRPRPRPIIFPRP	-0.0332
RRIRSRPPRLPRPRPRPEMMPRP	0.681
RRIRFRPPRLPRPRPRPFTCPRP	-0.271
RRIRIRPPRLPRPRPRPGSHPRP	0.141
RRIRMRPPRLPRPRPRPSYIPRP	-0.275
RRIRPRPPRLPRPRPRPAQFPRP	0.272
RRIRTRPPRLPRPRPRPVKCPRP	-0.0123
RRIRKRPPRLPRPRPRPFQCPRP	-0.01
RRIRPRPPRLPRPRPRPYAEPRP	-0.377
RRIRNRPPRLPRPRPRPDMKPRP	-0.423
RRIRVRPPRLPRPRPRPWSSPRP	-1.19
RRIRGRPPRLPRPRPRPEQRPRP	0.926
RRIRDRPPRLPRPRPRPYESPRP	0.00683
RRIRCRPPRLPRPRPRPPASPRP	0.723
RRIRGRPPRLPRPRPRPTSWPRP	0.782
RRIRCRPPRLPRPRPRPRNPPRP	0.176
RRIRGRPPRLPRPRPRPVWPPRP	0.947
RRIRIRPPRLPRPRPRPRRLPRP	-0.0824
RRIRERPPRLPRPRPRPPTHPRP	0.0517
RRIRERPPRLPRPRPRPIEQPRP	-0.00133

Reference: the supplement of paper PMC9112550, “Optimization of the antimicrobial peptide Bac7 by deep mutational scanning” (BMC Biology, 2022)
